One assay has as its system NFATc3. The assay can be described thus: Western blot for nuclear NFATc3 in MEC cells. The following applies: SFRP2 700 pM. The format is cell-based, mouse. As to the method:
To evaluate the role of the non-canonical Wnt/Ca^++ pathway in SFRP2 induced angiogenesis, nuclear dephosphorylated NFATc3 protein levels were compared in control and SFRP2-treated endothelial cells. MEC cells were plated in 12-well plates and allowed to attach overnight. The next day, the media was changed and added to the wells with and without SFRP2 (700 pM). Cells were incubated for 1, 2, 4, 8 and 16 hours, and the nuclear proteins were extracted by using NE-PER™ nuclear and cytoplasmic extraction reagent from PIERCE (Pierce Biotechnology) as described in the manufacturer's manual. The Western blot analysis was performed using standard methods, with primary antibody to the dephosphorylated (active) β-catenin antibody or NFATc3.

The subject of a further assay is β-catenin. The assay can be described thus: Western blot for nuclear and cytoplasmic β-catenin in endothelial cells. The format is cell-based, mouse. Particulars: SFRP2 700 pM. As to the method: SFRP2 has been described as both a Wnt antagonist and agonist, but its effects on Wnt signaling in endothelial cells have not been elucidated. To determine if SFRP2 mediates canonical Wnt signaling in endothelial cells, cytoplasmic and nuclear β-catenin levels were measured in SFRP2-treated endothelial cells. Mouse endothelial cells were plated in 12-well plates and allowed to attach overnight. The next day, the media was changed and added to the wells with and without SFRP2 (700 pM). Cells were incubated for 16 hours, and the nuclear and cytoplasmic proteins were extracted by using NE-PER™ nuclear and cytoplasmic extraction reagent from PIERCE (Pierce Biotechnology) as described in the manufacturer's manual. Western blot analysis was performed using standard methods, with primary antibody to the dephosphorylated (active) β-catenin antibody (Santa Cruz, Clone BDI480, catalog # sc-59893).
To evaluate the role of the non-canonical Wnt/Ca^++ pathway in SFRP2 induced angiogenesis, nuclear dephosphorylated NFATc3 protein levels were compared in control and SFRP2-treated endothelial cells. MEC cells were plated in 12-well plates and allowed to attach overnight. The next day, the media was changed and added to the wells with and without SFRP2 (700 pM). […]
For orientation: In western blotting, separated proteins are transferred to a membrane and probed.

Assay [1] has as its system chick chorioallantoic membrane. The assay can be described thus: Chick chorioallantoic membrane (CAM) assay. The following applies: 100 ng per disk, evaluated day 3 after disk placement. The format is in vivo, chicken. As to the method: On day 4, the eggs were cracked into sterile Petri dishes and incubated at 99° F. in 3% CO2, 65% humidity. For application of drug onto the CAM, Whatman grade 1 filter paper was cut into circles with a 6 mm diameter paper punch and autoclaved. To decrease inflammatory effects of the disk, the discs were soaked in 1 ml of 3.0 mg/ml cortisone acetate in absolute ETOH and air dried for 60 min in a laminar flow hood. On day 8, 5 disks per egg were placed on the outer third of the CAM, 2-3 mm from a vessel. Control PBS 7 μl was added to the discs for the control CAMs, and SFRP2 100 ng/7 μl PBS was added to the disks for the treated CAMs (n=5 control disks and 5 SFRP2-treated disks). The CAMs were evaluated under a stereomicroscope on day 3 after disk placement. Pictures were taken with a Wild M-4 70 Macrosystem, and angiogenesis was quantified using Metamorph Software with an angiogenesis module.
Fertilized chickens eggs (NC State University Chicken Research Faint) were incubated at 100.4° F. in an egg turner (Model#1588 Genesis Hova-Bator, GQF Mfg. Co., Inc.) for 3 days. […] CAMs were evaluated under a stereomicroscope on day 3 after disk placement. Pictures were taken with a Wild M-4 70 Macrosystem and angiogenesis was quantified using Metamorph Software with an angiogenesis module.

The subject of assay [2] is mouse endothelial cells (MEC). The assay can be described thus: Scratch wound assay on mouse endothelial cells. The following applies: SFRP2 0.7 pM-700 pM, 16 to 32 hours. The format is cell-based. How it is done:
The migration properties of SFRP2 on mouse endothelial cells (MEC) cells were evaluated using a scratch wound assay. Mouse endothelial cells were plated at 10,000 cells/well into a 96 well plate and allowed to become confluent in DMEM with 10% FBS. The cells were quiesced in DMEM without serum for 18 hours. The wound was formed using a 1 ml pipette tip and a 0.7 pM-700 pM dose curve of mouse recombinant SFRP2 (US Biologicals, Swampscott) was added to the cells. Each concentration was performed in triplicate and the experiment was repeated three times with similar results. Migration was measured from 16 to 32 hours. Migration distance was measured at each time point. Statistical differences between SFRP2 and control were evaluated with an unpaired two-tailed Student's t-test, with p<0.05 being significant.

The subject of another assay is C57BL/6 mice. The assay can be described thus: Mouse MATRIGEL plug angiogenesis assay. The format is in vivo. How it is done: The ability of mouse recombinant SFRP2 would stimulate angiogenesis in a mouse MATRIGEL plug angiogenesis assay was evaluated. Female C57BL/6 mice (8 weeks old) were injected s.c. with 0.5 ml of growth factor reduced basement membrane matrix (MATRIGEL) containing either mouse recombinant SFRP2 (800 ng/ml) with 30 U/ml heparin or PBS with 30 U/ml heparin for negative control. Seven days later the mice were sacrificed and the MATRIGEL plugs removed and evaluated for angiogenesis by hemoglobin concentration with the Drabkin's reagent.

“Also recorded” adds a separate entry of the source.

B1: SFRP2: mouse recombinant SFRP2 (US Biologicals), secreted frizzled-related protein 2 (protein)
chain: LFLFGQPDFSYKRSNCKPIPANLQLCHGIEYQNMRLPNLLGHETMKEVLEQAGAWIPLVMKQCHPDTKKFLCSLFAPVCLDDLDETIQPCHSLCVQVKDRCAPVMSAFGFPWPDMLECDRFPQDNDLCIPLASSDHLLPATEEAPKVCEACKTKNEDDNDIMETLCKNDFALKIKVKEITYINRDTKIILETKSKTIYKLNGVSERDLKKSVLWLKDSLQCTCEEMNDINAPYLVMGQKQGGELVITSVKRWQKGQREFKRISRSIRKLQC
Turning to B1, the “nuclear NFATc3 level” value in the assay on NFATc3 is given as “increased at 30 minutes in the nuclear fraction”. In the assay with β-catenin, the “nuclear (and cytoplasmic) β-catenin level” value is recorded as “no change in nuclear β-catenin; also recorded: no change in cytoplasmic or nuclear β-catenin levels”. Besides, the “angiogenesis on the CAM (branch points, segments, tube area, tube length)” value in assay [1] is “induced angiogenesis on the CAM; also recorded: induces angiogenesis on the chorioallantoic membrane”. For the same molecule, the endothelial cell migration result in assay [2] is recorded as “increases endothelial cell migration”. In addition, the “hemoglobin content of plugs, increase compared with the vehicle control” value in the assay with C57BL/6 mice (SFRP2 800 ng/ml with heparin, s.c., seven days) is 3.3 fold. Moreover, the “angiogenesis in the mouse MATRIGEL plug assay” value with C57BL/6 mice (mouse, in vivo) is given as “induces angiogenesis”.

The values are drawn from patent US9073982B2, “Targets for regulation of angiogenesis” (The University of North Carolina at Chapel Hill, priority 2008, dated 2015).
